The source of these data is patent US20150307616A1 (APEXIGEN, published 2015).

The target of test [1] is T1, mouse CD40 on mouse A20 cells (mouse, UniProt P27512 20-289).
T1 construct: whole, on cells; also called A20 cell line which expresses mouse CD40
Description: FACS on mouse A20 cells, goat anti-human IgG (H+L)-R-PE. How it is done:
Cross-reactivity of APX005 with mouse CD40 was further determined by FACS binding to a mouse A20 cell line which expresses mouse CD40. An aliquot of 0.5×10⁶ A20 cells was added to 96 well plates and incubated with 100 μl diluted rat anti-mouse CD40 antibody conjugated with PE, APX005 or IgG1 control antibodies. After washing, 100 μl Goat-anti human IgG (H+L) conjugated with R-PE (Southern Biotech CAT#2040-09) were added at 1:200 dilution in PBS to the sample and incubated for detection of APX005 and control human IgG1. A rat anti-mouse CD40 antibody conjugated with PE was used as positive control. Samples were re-suspended with 0.5 ml PBS and analyzed by FACS.

Test [2] deals with T2, human CD40 on the cell surface (human, UniProt P25942 21-277).
T2 construct: whole, on cells; also called cell surface CD40; CD40 on Ramos cells
In words: FACS on Ramos cells, 4 h at 37 C, Alexa 488 goat anti-human IgG. How it is done: (§1) In order to assess the target mediated-internalization of APX005 for evaluating its impact on ADCC activity, Ramos cells were incubated with APX005 for 4 h at 37° C., a temperature permissive for internalization, or at 4° C. for 30 minutes, a temperature at which internalization is minimized. Cells were washed with staining buffer, followed by incubation with Alexa 488 labeled goat anti-human IgG for an additional 30 minutes at 4° C. FACS analysis was performed to examine the level of APX005 on the cell surface.

Test [3] addresses T3, mouse CD40 (coated protein) (mouse, UniProt P27512 20-193, limits assumed).
T3 construct: Coated at 1 µg/ml on ELISA plates
Description: direct ELISA by the text (1 ug/ml CD40 coated, goat anti-human IgG-HRP); the axis of the sheet is labelled MFI. On the procedure: Cross-reactivity was assessed by direct ELISA. A total of 1 μg/ml of human CD40, monkey CD40 or mouse CD40 was coated on ELISA plates followed by incubation with […] of APX005 or control IgG1. Antibodies bound to CD40 were detected using goat anti-human IgG conjugated with HRP. APX005 clearly crossreacts with monkey CD40 but not mouse CD40. (FIG. 11A)
(ELISA stands for enzyme-linked immunosorbent assay.)

The target of test [4] is T2, human CD40 on the cell surface. Description: FACS on Ramos cells, 30 minutes at 4 C, Alexa 488 goat anti-human IgG. On the procedure: as §1
The target of the next test is T4, human CD40 (human, UniProt P25942 21-193, limits assumed).
T4 construct: also called immobilized human CD40
Description: method not stated.

T2 sequence (P25942 21-277): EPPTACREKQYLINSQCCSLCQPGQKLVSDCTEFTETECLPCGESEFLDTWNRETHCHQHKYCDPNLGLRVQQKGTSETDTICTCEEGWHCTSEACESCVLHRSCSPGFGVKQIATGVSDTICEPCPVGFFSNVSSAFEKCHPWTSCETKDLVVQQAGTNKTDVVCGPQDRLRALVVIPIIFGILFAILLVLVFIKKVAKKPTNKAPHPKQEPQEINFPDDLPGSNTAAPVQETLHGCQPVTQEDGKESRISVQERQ
T3 sequence (P27512 20-193 limits assumed): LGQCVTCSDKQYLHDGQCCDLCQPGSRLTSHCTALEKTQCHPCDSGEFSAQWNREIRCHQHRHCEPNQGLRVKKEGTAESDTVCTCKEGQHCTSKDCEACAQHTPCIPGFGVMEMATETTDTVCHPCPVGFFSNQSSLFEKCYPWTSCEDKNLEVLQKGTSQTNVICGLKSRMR
T1 sequence (P27512 20-289): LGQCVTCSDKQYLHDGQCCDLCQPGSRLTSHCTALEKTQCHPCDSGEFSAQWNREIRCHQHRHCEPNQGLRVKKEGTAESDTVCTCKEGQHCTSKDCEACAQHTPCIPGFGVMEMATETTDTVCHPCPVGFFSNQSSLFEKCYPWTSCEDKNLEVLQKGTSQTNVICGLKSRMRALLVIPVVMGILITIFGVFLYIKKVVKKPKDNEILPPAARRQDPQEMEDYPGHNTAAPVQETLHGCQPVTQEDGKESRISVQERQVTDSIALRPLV
T4 sequence (P25942 21-193 limits assumed): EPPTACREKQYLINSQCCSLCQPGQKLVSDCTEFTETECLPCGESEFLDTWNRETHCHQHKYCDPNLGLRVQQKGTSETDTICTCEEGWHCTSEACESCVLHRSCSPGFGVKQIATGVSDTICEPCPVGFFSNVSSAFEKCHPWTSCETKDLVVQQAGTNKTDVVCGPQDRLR

B1: APX005 humanized anti-CD40 antibody (antibody, IgG1, V domains shown)
VH: QVQLVESGGGVVQPGRSLRLSCAASGFSFSSTYVCWVRQAPGKGLEWIACIYTGDGTNYSASWAKGRFTISKDSSKNTVYLQMNSLRAEDTAVYFCARPDITYGFAINFWGPGTLVTVSS
VL: DIQMTQSPSSLSASVGDRVTIKCQASQSISSRLAWYQQKPGKPPKLLIYRASTLASGVPSRFSGSGSGTDFTLTISSLQPEDVATYYCQCTGYGISWPIGGGTKVEIK
notes: also called humanized R-8
As usually defined, the EC50 (read off the curve) is the concentration that produces a half-maximal response. By Kd is commonly meant the free concentration of one partner at which half of the binding sites on the other are occupied at equilibrium, for simple one-to-one binding. Low values mean higher affinity, high ones lower affinity. With B1, the binding result is reported as “no binding (tested: 10000 ng/ml)” in test [1] and “no binding” in test [3]. For the same molecule, the “EC50 (read off the curve)” value in test [2] and in test [4] was around 0.05 µg/mL each time. In the test with human CD40, this molecule gave an equilibrium dissociation constant (Kd) of 0.96 nM.
